The target of one experiment is TNFα (UniProt P01375). In words: cell-based or functional assay.
Another experiment addresses T1, TNFβ (UniProt P01374).
T1 sequence (looked up): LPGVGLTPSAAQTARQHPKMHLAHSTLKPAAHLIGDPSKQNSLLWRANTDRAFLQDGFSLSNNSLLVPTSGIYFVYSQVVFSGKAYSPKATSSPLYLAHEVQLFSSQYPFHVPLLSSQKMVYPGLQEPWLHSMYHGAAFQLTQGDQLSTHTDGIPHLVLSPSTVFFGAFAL
Nature of the experiment: cell-based or functional assay.

Chain of TNFα (P01375 77-233 limits assumed): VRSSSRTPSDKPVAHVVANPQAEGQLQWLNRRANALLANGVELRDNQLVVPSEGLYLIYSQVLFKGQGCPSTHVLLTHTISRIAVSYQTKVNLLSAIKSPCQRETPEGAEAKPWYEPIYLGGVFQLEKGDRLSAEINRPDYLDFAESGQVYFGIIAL
Chain of simple fusion dimeric protein [TNFR1/Fc]2 (Fc fusion) (chain): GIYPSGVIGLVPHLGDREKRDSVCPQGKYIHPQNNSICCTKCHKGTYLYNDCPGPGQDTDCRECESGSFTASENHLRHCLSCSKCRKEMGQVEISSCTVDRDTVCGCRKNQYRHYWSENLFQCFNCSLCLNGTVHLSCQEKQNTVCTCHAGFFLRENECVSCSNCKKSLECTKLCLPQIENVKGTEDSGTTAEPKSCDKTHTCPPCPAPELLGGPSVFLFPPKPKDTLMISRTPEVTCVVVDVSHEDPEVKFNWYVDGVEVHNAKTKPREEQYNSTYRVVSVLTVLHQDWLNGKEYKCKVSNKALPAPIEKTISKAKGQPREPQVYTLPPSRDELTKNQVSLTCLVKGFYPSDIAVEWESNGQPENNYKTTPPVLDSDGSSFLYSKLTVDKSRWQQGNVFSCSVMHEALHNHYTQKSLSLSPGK
Chain of concatameric fusion dimeric protein [TNFR1-TNFR1/Fc]2 (Fc fusion) (chain): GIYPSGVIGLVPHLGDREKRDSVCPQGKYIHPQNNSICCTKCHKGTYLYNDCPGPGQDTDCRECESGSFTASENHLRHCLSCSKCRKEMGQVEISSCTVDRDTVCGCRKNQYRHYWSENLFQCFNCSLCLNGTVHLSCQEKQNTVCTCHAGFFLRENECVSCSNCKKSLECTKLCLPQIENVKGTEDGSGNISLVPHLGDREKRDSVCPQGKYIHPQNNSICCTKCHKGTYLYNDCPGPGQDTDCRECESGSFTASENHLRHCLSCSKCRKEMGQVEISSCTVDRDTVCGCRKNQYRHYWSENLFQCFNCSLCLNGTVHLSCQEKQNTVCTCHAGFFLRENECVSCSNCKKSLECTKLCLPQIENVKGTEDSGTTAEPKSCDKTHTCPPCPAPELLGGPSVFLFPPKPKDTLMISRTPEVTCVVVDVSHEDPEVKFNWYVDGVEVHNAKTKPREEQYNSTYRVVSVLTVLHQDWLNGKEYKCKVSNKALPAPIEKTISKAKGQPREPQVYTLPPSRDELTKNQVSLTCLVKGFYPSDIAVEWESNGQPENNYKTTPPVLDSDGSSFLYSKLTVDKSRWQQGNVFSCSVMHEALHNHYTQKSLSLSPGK
Chain of simple fusion dimeric protein [TNFR2/Fc]2 (Fc fusion) (chain): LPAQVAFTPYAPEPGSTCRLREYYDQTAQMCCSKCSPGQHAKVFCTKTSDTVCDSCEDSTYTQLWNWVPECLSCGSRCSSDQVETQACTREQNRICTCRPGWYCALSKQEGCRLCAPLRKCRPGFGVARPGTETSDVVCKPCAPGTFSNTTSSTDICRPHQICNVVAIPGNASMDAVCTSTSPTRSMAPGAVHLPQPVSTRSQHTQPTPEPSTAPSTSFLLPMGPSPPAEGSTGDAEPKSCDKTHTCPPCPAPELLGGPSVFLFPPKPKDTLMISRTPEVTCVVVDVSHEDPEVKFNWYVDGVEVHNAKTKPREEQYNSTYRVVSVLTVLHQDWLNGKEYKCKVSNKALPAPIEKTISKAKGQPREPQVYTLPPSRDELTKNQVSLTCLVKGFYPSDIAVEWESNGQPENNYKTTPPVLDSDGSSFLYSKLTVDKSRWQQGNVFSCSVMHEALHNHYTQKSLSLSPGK
Chain of concatameric fusion dimeric protein [TNFR2-TNFR2/Fc]2 (Fc fusion) (chain): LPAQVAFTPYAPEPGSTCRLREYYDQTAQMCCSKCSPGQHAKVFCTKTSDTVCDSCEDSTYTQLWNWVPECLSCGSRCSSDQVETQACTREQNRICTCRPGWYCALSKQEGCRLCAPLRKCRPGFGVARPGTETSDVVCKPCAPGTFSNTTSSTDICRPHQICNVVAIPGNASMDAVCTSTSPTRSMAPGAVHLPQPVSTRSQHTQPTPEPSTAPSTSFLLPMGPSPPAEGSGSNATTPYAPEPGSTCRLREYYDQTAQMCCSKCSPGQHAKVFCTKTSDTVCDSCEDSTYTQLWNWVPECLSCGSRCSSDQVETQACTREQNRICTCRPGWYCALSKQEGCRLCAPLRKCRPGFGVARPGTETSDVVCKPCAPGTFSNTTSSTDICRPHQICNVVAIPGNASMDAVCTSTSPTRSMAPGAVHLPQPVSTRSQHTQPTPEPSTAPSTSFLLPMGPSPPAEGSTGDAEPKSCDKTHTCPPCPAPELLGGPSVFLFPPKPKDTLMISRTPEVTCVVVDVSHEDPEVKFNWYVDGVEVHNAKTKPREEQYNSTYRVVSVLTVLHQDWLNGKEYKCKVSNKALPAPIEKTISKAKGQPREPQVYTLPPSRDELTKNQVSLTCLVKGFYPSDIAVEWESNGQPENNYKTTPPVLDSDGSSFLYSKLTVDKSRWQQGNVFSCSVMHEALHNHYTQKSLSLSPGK

In the experiment with TNFα, “concatameric fusion dimeric protein [TNFR1-TNFR1/Fc]2 (Fc fusion)” had an IC50 of cytotoxicity inhibition, L929 cells, TNFα treated of 9 µg/mL. Also, in the experiment with TNFβ, the IC50 of cytotoxicity inhibition, L929 cells, TNFβ treated is 20 µg/mL.
For “concatameric fusion dimeric protein [TNFR2-TNFR2/Fc]2 (Fc fusion)” the same measures were 15 µg/mL and 15 µg/mL.
Taken in the same sequence, the figures for “simple fusion dimeric protein [TNFR1/Fc]2 (Fc fusion)” were 63 µg/mL and 129 µg/mL.
In the case of “simple fusion dimeric protein [TNFR2/Fc]2 (Fc fusion)”, the IC50 of cytotoxicity inhibition, L929 cells, TNFα treated with TNFα is 189 µg/mL. The substance also displayed an IC50 of cytotoxicity inhibition, L929 cells, TNFβ treated with TNFβ of 469 µg/mL.

Source of the values: patent US20030195338A1.
